Measured values from the Human Domainome abundance scans (Beltran et al. 2025).
± gives the uncertainty stated by the source.

B1: POU domain, class 3, transcription factor 3, residues 320 to 388; numbered along this chain, P20264 (parent)
chain: DDLEQFAKQFKQRRIKLGFTQADVGLALGTLYGNVFSQTTICRFEALQLSFKNMCKLKPLLNKWLEEAD
B2: Histone-lysine N-methyltransferase 2A, residues 1148 to 1194; numbered along this chain, Q03164 (parent)
chain: KGRRSRRCGQCPGCQVPEDCGVCTNCLDKPKFGGRNIKKQCCKMRKC

Variants of: B1
Assay: abundance fitness (aPCA) (normalised: wild type 0, dead -1); higher = more abundant; growth selection in yeast, the domain comes from the species named
Settings: Homo sapiens

Variant | abundance fitness
DDLEQFAKQFKQRRIKLGFTQADVGLALGTLYGNVFSQTTICRFEALQLSFKNMCKLKPLLNKWLEEAL | -0.436 ± 0.16
DDLEQFAKQFKQRRIKLGFTQADVGLALGTLYGNVFSQTTICRFEALQLSFKNMCKLKPLLNKWLEEAS | -0.573 ± 0.32
DDLEQFAKQFKQRRIKLGFTQADVGLALGTLYGNVFSQTTICRFEALQLSFKNMCKLKPLLNKWLEEAE | -0.183 ± 0.25
DDLEQFAKQFKQRRIKLGFTQADVGLALGTLYGNVFSQTTICRFEALQLSFKNMCKLKPLLNKWLEEAP | -0.128 ± 0.047
DDLEQFAKQFKQRRIKLGFTQADVGLALGTLYGNVFSQTTICRFEALQLSFKNMCKLKPLLNKWLEEAT | -0.314 ± 0.25
DDLEQFAKQFKQRRIKLGFTQADVGLALGTLYGNVFSQTTICRFEALQLSFKNMCKLKPLLNKWLEEQD | -0.587 ± 0.32
DDLEQFAKQFKQRRIKLGFTQADVGLALGTLYGNVFSQTTICRFEALQLSFKNMCKLKPLLNKWLEEMD | 0.303 ± 0.23
DDLEQFAKQFKQRRIKLGFTQADVGLALGTLYGNVFSQTTICRFEALQLSFKNMCKLKPLLNKWLEEND | -0.163 ± 0.45
DDLEQFAKQFKQRRIKLGFTQADVGLALGTLYGNVFSQTTICRFEALQLSFKNMCKLKPLLNKWLEESD | -0.082 ± 0.14
DDLEQFAKQFKQRRIKLGFTQADVGLALGTLYGNVFSQTTICRFEALQLSFKNMCKLKPLLNKWLEEYD | -0.176 ± 0.17
DDLEQFAKQFKQRRIKLGFTQADVGLALGTLYGNVFSQTTICRFEALQLSFKNMCKLKPLLNKWLEERD | -0.248 ± 0.15

Variants of: B2
Assay: as above
Settings: Homo sapiens

Variant | abundance fitness
KKRRSRRCGQCPGCQVPEDCGVCTNCLDKPKFGGRNIKKQCCKMRKC | -0.569 ± 0.23
KDRRSRRCGQCPGCQVPEDCGVCTNCLDKPKFGGRNIKKQCCKMRKC | 0.186 ± 0.088
KQRRSRRCGQCPGCQVPEDCGVCTNCLDKPKFGGRNIKKQCCKMRKC | -0.007 ± 0.17
KERRSRRCGQCPGCQVPEDCGVCTNCLDKPKFGGRNIKKQCCKMRKC | 0.013 ± 0.12
KLRRSRRCGQCPGCQVPEDCGVCTNCLDKPKFGGRNIKKQCCKMRKC | -0.303 ± 0.11
KFRRSRRCGQCPGCQVPEDCGVCTNCLDKPKFGGRNIKKQCCKMRKC | -0.701 ± 0.38
KARRSRRCGQCPGCQVPEDCGVCTNCLDKPKFGGRNIKKQCCKMRKC | -0.403 ± 0.12
KWRRSRRCGQCPGCQVPEDCGVCTNCLDKPKFGGRNIKKQCCKMRKC | -0.79 ± 0.16
KVRRSRRCGQCPGCQVPEDCGVCTNCLDKPKFGGRNIKKQCCKMRKC | -0.275 ± 0.098
KRRRSRRCGQCPGCQVPEDCGVCTNCLDKPKFGGRNIKKQCCKMRKC | -0.413 ± 0.12
KSRRSRRCGQCPGCQVPEDCGVCTNCLDKPKFGGRNIKKQCCKMRKC | -0.213 ± 0.086
KGRRSRICGQCPGCQVPEDCGVCTNCLDKPKFGGRNIKKQCCKMRKC | -0.17 ± 0.16
KGRRSRCCGQCPGCQVPEDCGVCTNCLDKPKFGGRNIKKQCCKMRKC | -0.493 ± 0.14
KGRRSRDCGQCPGCQVPEDCGVCTNCLDKPKFGGRNIKKQCCKMRKC | 0.159 ± 0.16
KGRRSRACGQCPGCQVPEDCGVCTNCLDKPKFGGRNIKKQCCKMRKC | -0.09 ± 0.12
KGRRSRGCGQCPGCQVPEDCGVCTNCLDKPKFGGRNIKKQCCKMRKC | -0.036 ± 0.093
KGRRSRFCGQCPGCQVPEDCGVCTNCLDKPKFGGRNIKKQCCKMRKC | -0.192 ± 0.15
KGRRSRHCGQCPGCQVPEDCGVCTNCLDKPKFGGRNIKKQCCKMRKC | -0.435 ± 0.36
KGRRSDRCGQCPGCQVPEDCGVCTNCLDKPKFGGRNIKKQCCKMRKC | 0.143 ± 0.11
KGRRSPRCGQCPGCQVPEDCGVCTNCLDKPKFGGRNIKKQCCKMRKC | 0.054 ± 0.095
KGRRSLRCGQCPGCQVPEDCGVCTNCLDKPKFGGRNIKKQCCKMRKC | -0.014 ± 0.093
KGRRSTRCGQCPGCQVPEDCGVCTNCLDKPKFGGRNIKKQCCKMRKC | -0.179 ± 0.11
KGRRSCRCGQCPGCQVPEDCGVCTNCLDKPKFGGRNIKKQCCKMRKC | -0.407 ± 0.12
KGRRSVRCGQCPGCQVPEDCGVCTNCLDKPKFGGRNIKKQCCKMRKC | -0.204 ± 0.11

Variant | abundance fitness
KGRRSHRCGQCPGCQVPEDCGVCTNCLDKPKFGGRNIKKQCCKMRKC | 0.089 ± 0.13
KGRRSERCGQCPGCQVPEDCGVCTNCLDKPKFGGRNIKKQCCKMRKC | 0.138 ± 0.15
KGRRSWRCGQCPGCQVPEDCGVCTNCLDKPKFGGRNIKKQCCKMRKC | -0.064 ± 0.11
KGRRSARCGQCPGCQVPEDCGVCTNCLDKPKFGGRNIKKQCCKMRKC | 0.182 ± 0.1
KGRRSMRCGQCPGCQVPEDCGVCTNCLDKPKFGGRNIKKQCCKMRKC | -0.171 ± 0.14
KGRRSIRCGQCPGCQVPEDCGVCTNCLDKPKFGGRNIKKQCCKMRKC | 0.019 ± 0.12
KGRRSYRCGQCPGCQVPEDCGVCTNCLDKPKFGGRNIKKQCCKMRKC | -0.207 ± 0.14
KGRRSFRCGQCPGCQVPEDCGVCTNCLDKPKFGGRNIKKQCCKMRKC | 0.1 ± 0.12
KGRRSGRCGQCPGCQVPEDCGVCTNCLDKPKFGGRNIKKQCCKMRKC | -0.088 ± 0.087
KGRRSSRCGQCPGCQVPEDCGVCTNCLDKPKFGGRNIKKQCCKMRKC | 0.06 ± 0.086
KGRRSNRCGQCPGCQVPEDCGVCTNCLDKPKFGGRNIKKQCCKMRKC | 0.158 ± 0.12
KGRRSKRCGQCPGCQVPEDCGVCTNCLDKPKFGGRNIKKQCCKMRKC | -0.143 ± 0.13
KGRASRRCGQCPGCQVPEDCGVCTNCLDKPKFGGRNIKKQCCKMRKC | -0.035 ± 0.1
KGRLSRRCGQCPGCQVPEDCGVCTNCLDKPKFGGRNIKKQCCKMRKC | -0.06 ± 0.095
KGRDSRRCGQCPGCQVPEDCGVCTNCLDKPKFGGRNIKKQCCKMRKC | 0.045 ± 0.15
KGRVSRRCGQCPGCQVPEDCGVCTNCLDKPKFGGRNIKKQCCKMRKC | 0.103 ± 0.1
KGRKSRRCGQCPGCQVPEDCGVCTNCLDKPKFGGRNIKKQCCKMRKC | 0.186 ± 0.15
KGRTSRRCGQCPGCQVPEDCGVCTNCLDKPKFGGRNIKKQCCKMRKC | 0.148 ± 0.14
KGRMSRRCGQCPGCQVPEDCGVCTNCLDKPKFGGRNIKKQCCKMRKC | 0.141 ± 0.12
KGRGSRRCGQCPGCQVPEDCGVCTNCLDKPKFGGRNIKKQCCKMRKC | 0.125 ± 0.1
KGRSSRRCGQCPGCQVPEDCGVCTNCLDKPKFGGRNIKKQCCKMRKC | -0.004 ± 0.1
KGRHSRRCGQCPGCQVPEDCGVCTNCLDKPKFGGRNIKKQCCKMRKC | -0.279 ± 0.23
KGRWSRRCGQCPGCQVPEDCGVCTNCLDKPKFGGRNIKKQCCKMRKC | -0.54 ± 0.17
KGRFSRRCGQCPGCQVPEDCGVCTNCLDKPKFGGRNIKKQCCKMRKC | -0.15 ± 0.15

Variant | abundance fitness
KGRESRRCGQCPGCQVPEDCGVCTNCLDKPKFGGRNIKKQCCKMRKC | 0.068 ± 0.12
KGRPSRRCGQCPGCQVPEDCGVCTNCLDKPKFGGRNIKKQCCKMRKC | -0.01 ± 0.13
KGRYSRRCGQCPGCQVPEDCGVCTNCLDKPKFGGRNIKKQCCKMRKC | -0.184 ± 0.17
KGRISRRCGQCPGCQVPEDCGVCTNCLDKPKFGGRNIKKQCCKMRKC | -0.074 ± 0.16
KGRRIRRCGQCPGCQVPEDCGVCTNCLDKPKFGGRNIKKQCCKMRKC | -0.604 ± 0.26
KGRRDRRCGQCPGCQVPEDCGVCTNCLDKPKFGGRNIKKQCCKMRKC | -0.037 ± 0.14
KGRRCRRCGQCPGCQVPEDCGVCTNCLDKPKFGGRNIKKQCCKMRKC | -0.644 ± 0.12
KGRRTRRCGQCPGCQVPEDCGVCTNCLDKPKFGGRNIKKQCCKMRKC | -0.24 ± 0.17
KGRRFRRCGQCPGCQVPEDCGVCTNCLDKPKFGGRNIKKQCCKMRKC | 0.163 ± 0.15
KGRRHRRCGQCPGCQVPEDCGVCTNCLDKPKFGGRNIKKQCCKMRKC | -0.25 ± 0.2
KGRRMRRCGQCPGCQVPEDCGVCTNCLDKPKFGGRNIKKQCCKMRKC | -0.236 ± 0.17
KGRRQRRCGQCPGCQVPEDCGVCTNCLDKPKFGGRNIKKQCCKMRKC | 0.07 ± 0.21
KGRRARRCGQCPGCQVPEDCGVCTNCLDKPKFGGRNIKKQCCKMRKC | -0.19 ± 0.11
KGRRNRRCGQCPGCQVPEDCGVCTNCLDKPKFGGRNIKKQCCKMRKC | -0.161 ± 0.24
KGRRRRRCGQCPGCQVPEDCGVCTNCLDKPKFGGRNIKKQCCKMRKC | -0.226 ± 0.098
KGRRYRRCGQCPGCQVPEDCGVCTNCLDKPKFGGRNIKKQCCKMRKC | -0.459 ± 0.23
KGRRKRRCGQCPGCQVPEDCGVCTNCLDKPKFGGRNIKKQCCKMRKC | -0.093 ± 0.21
KGRRPRRCGQCPGCQVPEDCGVCTNCLDKPKFGGRNIKKQCCKMRKC | -0.137 ± 0.14
KGRRLRRCGQCPGCQVPEDCGVCTNCLDKPKFGGRNIKKQCCKMRKC | -0.132 ± 0.1
KGRRGRRCGQCPGCQVPEDCGVCTNCLDKPKFGGRNIKKQCCKMRKC | -0.169 ± 0.084
KGRRERRCGQCPGCQVPEDCGVCTNCLDKPKFGGRNIKKQCCKMRKC | -0.091 ± 0.14
EGRRSRRCGQCPGCQVPEDCGVCTNCLDKPKFGGRNIKKQCCKMRKC | 0.47 ± 0.24
DGRRSRRCGQCPGCQVPEDCGVCTNCLDKPKFGGRNIKKQCCKMRKC | -0.341 ± 0.28
TGRRSRRCGQCPGCQVPEDCGVCTNCLDKPKFGGRNIKKQCCKMRKC | -0.659 ± 0.21

Variant | abundance fitness
GGRRSRRCGQCPGCQVPEDCGVCTNCLDKPKFGGRNIKKQCCKMRKC | -0.676 ± 0.3
YGRRSRRCGQCPGCQVPEDCGVCTNCLDKPKFGGRNIKKQCCKMRKC | -0.299 ± 0.33
MGRRSRRCGQCPGCQVPEDCGVCTNCLDKPKFGGRNIKKQCCKMRKC | -0.337 ± 0.17
RGRRSRRCGQCPGCQVPEDCGVCTNCLDKPKFGGRNIKKQCCKMRKC | -0.285 ± 0.21
PGRRSRRCGQCPGCQVPEDCGVCTNCLDKPKFGGRNIKKQCCKMRKC | -0.662 ± 0.44
VGRRSRRCGQCPGCQVPEDCGVCTNCLDKPKFGGRNIKKQCCKMRKC | -0.43 ± 0.31
SGRRSRRCGQCPGCQVPEDCGVCTNCLDKPKFGGRNIKKQCCKMRKC | -0.232 ± 0.18
KGKRSRRCGQCPGCQVPEDCGVCTNCLDKPKFGGRNIKKQCCKMRKC | 0.161 ± 0.18
KGWRSRRCGQCPGCQVPEDCGVCTNCLDKPKFGGRNIKKQCCKMRKC | -0.518 ± 0.1
KGNRSRRCGQCPGCQVPEDCGVCTNCLDKPKFGGRNIKKQCCKMRKC | 0.017 ± 0.18
KGQRSRRCGQCPGCQVPEDCGVCTNCLDKPKFGGRNIKKQCCKMRKC | 0.023 ± 0.13
KGARSRRCGQCPGCQVPEDCGVCTNCLDKPKFGGRNIKKQCCKMRKC | -0.123 ± 0.089
KGGRSRRCGQCPGCQVPEDCGVCTNCLDKPKFGGRNIKKQCCKMRKC | -0.091 ± 0.08
KGFRSRRCGQCPGCQVPEDCGVCTNCLDKPKFGGRNIKKQCCKMRKC | 0.097 ± 0.17
KGMRSRRCGQCPGCQVPEDCGVCTNCLDKPKFGGRNIKKQCCKMRKC | 0.056 ± 0.16
KGDRSRRCGQCPGCQVPEDCGVCTNCLDKPKFGGRNIKKQCCKMRKC | -0.185 ± 0.18
KGVRSRRCGQCPGCQVPEDCGVCTNCLDKPKFGGRNIKKQCCKMRKC | 0.11 ± 0.089
KGERSRRCGQCPGCQVPEDCGVCTNCLDKPKFGGRNIKKQCCKMRKC | -0.038 ± 0.13
KGYRSRRCGQCPGCQVPEDCGVCTNCLDKPKFGGRNIKKQCCKMRKC | -0.301 ± 0.25
KGHRSRRCGQCPGCQVPEDCGVCTNCLDKPKFGGRNIKKQCCKMRKC | -0.403 ± 0.25
KGIRSRRCGQCPGCQVPEDCGVCTNCLDKPKFGGRNIKKQCCKMRKC | -0.281 ± 0.17
KGCRSRRCGQCPGCQVPEDCGVCTNCLDKPKFGGRNIKKQCCKMRKC | 0.012 ± 0.11
